This data set in a line: label from the status in PepcDB records.
On to “MSALEPDDPRSVGEYRLLGRLGAGGMGRVFLGRSPGGRLVAVKVVHAELLRRPEFRDRFRREVQAARMVSGAFTAPVVDADPDAPLPWLVTSYIAGPSLEQAVAERGPFDPQAVLTLAAGLAEALVSIHAAHLVHRDLKPSNVLLAEDGPRVIDFGIVRSVDADSLTGSGHMAGSPGFMSPEQVNGDEVTWASDVFCLGAVLAFAATGTNPFGAGPTPALLYRVVHNAPDVAAVADPALRSLIADCLAKDPAHRPAPREILARIGPLGGESATALPHAQQWTPAARPTRADAVPTRIVPPVAAPPAHQHTRVDTSPAQVYPPAPAPADVRPTATGDGGRRSRRAFLFSGAGALAALGVGTGFWLNRPADPDPAEGSAPAPSPSSAPSPPPGPVGLWPLDEASGQVARDTAGGHDGTVTGVAWQGAGEGAAFDGTGSQIVTAGPVLQTGAGRSFTVAAWVRLSAVPGVFATAVSQDSADASGFYLQYSSEDQGWAFARPGLRAVGRTAPAAHVWTHLTGVCDGPARKLHLYVNGVQEAVVEDTGPAPATGAFMIGRASFDGQPRDFFPGAIRDVRAFDRALGPARVAQLAQLG”, for which the protein production entry is recorded as “failed”. With “MEAMTLPPQDLPPGQALLATPLGTANAPQAARVHTYPLRFTGQASEYFRVWIVNLALTVITLGLYTPWARIRTRQYLYGHTWLDDQNFEYTASPFALLRGYLIVVAFFGLYTAAQQLQFTGWEWVTGALGLLFAVAYPWLVRQSMRFQARSTVHRGLRFRFTGSLGDAYVSYGVANIAAVFSGSLALPWAWFMQRRYQADGLAYGTARGHFRGSLGPFYLIGLAGAGLTVLGIGLLAGLAIGAATIAGVLGDLNLEQLDTDLLTSAVVVAFVLGYLALAVLYGIAWQYVRAATMHYVLNNFELGGVVRTQATFSPWRLVWINLANTLARIFSLGLLTPWTVIRTNRYLLGHVQVRAIVSLDDFSAAQTEDESAVGEAATELLDINIGF”, the protein production result is reported as “failed”. Take “MLYVVGIGPGNEEYFTKEAENALNSVDLIVCYTGYKKYIERFDTEIYVSGMTKEVERVEYALKEAENKNVALVSNGDATIYGLASLAYELNEKNLHNVTINVVSGL”: the protein production entry was “failed”. For “MMVPDVSNFAVILTTSGAILLIAYLTAISARDVIRLLISLELMFAAVFLAIVPLFSINPPMAYAVAIITAFTSSTELMVLVTAIILLDRRKRGIDVDKVAVGGDSL” the value was “failed”. As to “MIVASSAAYRLHQGDALRLLCGIDSASVDAVITDPPYCSGAMRMADRFKPTKRKYINNGTKHVAPDFDCDFRDHRGFLAWSSQWLSECRRVTRPGGVLLVFTDWRMLPTLTDAVQSAGWAWQGIVVWDKTPACRPQLGRFRSQAEFIVWASCGLMNPKAHPVTPVGVFATGTAPREKRHQVGKPLALMEHLVKIVPPASTVLDPFAGSGTTGVAALRAGHRFIGMELSPWYCDVTKQRLADST”, the protein production entry was “failed”.

Take “MEISEYFKDWMELYKKNAIDEMTYKGYEQTLKYLKTYMPNVLISEITASSYQRALNKFAETHAKASTKGFHTRVRASIQPLIEEGRLQKDFTTRAVVKGLEHHHHHH”: the protein production result is “not failed”. Take “MKSLEEKTIAKEQIFSGKVIDLYVEDVELPNGKASKREIVKHPGAVAVLAVTDEGKIIMVKQFRKPLERTIVEIPAGKLEKGEEPEYTALRELEEETGYTAKKLTKITAFYTSPGFADEIVHVFLAEELSVLEEKRELDEDEFVEVMEVTLEDALKLVESREVYDAKTAYAIQYLQLKEALQAQK”: the protein production result is “failed”. “MIEEEAIVTQVEEHAIWVEKFRKSACGSCAGGCSTSLVARLLGGKPLRLRIATEARVAPGDRVIIGVEEGALLAGSFRMYLFPLFSLIGGALLGKLLAAQGLSATAEAGSIAGGLVGLGLTLVLLKYCPSLQRQNLHPVFIRRISR”: the protein production result is “failed”. As to “MTRRAAEEILPSSLFRDPDTERVTARTGAYLKIGVIAPALMVADVWLAQQLFPGFDAGAQFISELGGPEAPMPEIFNYGMVIAGIAGLFAGAGFAHALEHAGGRRVVSAFAGLFVALTGLGAIFAGIFHWPDPMHRACGVGLGIQFAPLFAAWALWGKPDYRRLAQFSLGWFFGLLLVFALLTGVWNVRTGYDVGYWQRGHAFLGLLWLAIAAWTLERGWRAAVMSEIETASA”, the protein production entry is “failed”. Then “MLTYFHPDQSLHHPRTYFSRGRMRMPQEVPERAARLVAAAFAMGFPVREPDDFGIAPIAAVHDTHYLRFLETVHREWKAMPEDWGDEAMSNIFVREPNALRGVLAQAARHLADGSCPVGEHTWRAAYWSAQSALAAAAAVRDGAPAAYALCRPPGHHARVDAAGGFCYLNNAAIAAQALRARHARVAVLDTDMHHGQGIQEIFYARRDVLYVSIHGDPTNFYPAVAGFDDERGAGEGLGYNVNLPMPHGSSEAAFFERVDDALRELRRFAPDALVLSLGFDVYRDDPQSQVAVTTDGFGRLGHLIGALRLPTVIVQEGGYHIESLEANARSFFGGFGALRG”, with “not failed”; and “MEELTQILKNNRTDDLTWFCSLSESELDLLISLKKLAIQRAKISGHQELADKFDLKLLRSLGLVLMEHARKRVQNDTSLAPSVVHQLRLLDNCNLLKTHVDDAVDIEEILTQICDNKSKKKARKRRR”, with “failed”. For the sequence “MAQTCSILYIPYMLLLSSLFAAGIATITEGELLSSMIGVQGLIYCKRGSKLTPIQGAVARVTCERTDEYGYEAEDVTVLSQATDAKGYFLATLSSSEVKDYKKVIKIKECRAFLELSPSDTCSFPTEINRGISGAILQNYRLLENKLKMKLFTVGPFVFSSEETQDKSIPNGY”, the protein production result is given as “failed”. Take “MDVLPLLLLVAGSAAVAGAARRTPVPAPLLLVAAGLIASYIPGVPEYTLDPEVVLPLVLPPLLYTAASDSSYLDLRAQLRPVALLSIGYVLFATLVVGWAAYLLVPGLPLPAALVLGAVVAPPDAVAATAVARRVGLPSRITTILQGESLVNDATAITAYKVALAAAVGEGATWAHGVGEFLLAAVGGVAVGLLLMVPLHWLRTHLKEALLQNTLSLLIPFVAYGLAEWAHASGVLAVVVVALYLGHRNYEVDFATRLQEEAVWKMVAFVLESAVFALIGLQLQVVLKGLGEYRGVDAAWYAVAVFLVVVLARFVWVYPATFLPRLLSARIREREENPTWKAPFIIGWAGMRGVVSLAIAFSIPLTVHGQGKGPFPGRNLILFLTFTTVIGTLVVQGLTLPPLIRLLRLPGRDAQAETLAEANAQAQASRVAELRLNDLLDDERNALPPPLADRLRDVLERRRNAVWERLGAVNPVTGESVDDTYRRLSREMIAAERSVFVRLRNGRYIDDEMLRTLLRRLDLEEAAAFREAT”: the protein production result is given as “failed”. “MSDLTKVFIAPEEIVNFLKKNMQLKEVYQKILFQRLILQVAEARGITVTTEEIEAEANRQRREKRLEKAADTMAWLADQLASPEDWEMGIRDRLLSQKLANFLFADKVEAFFIQNQLEFEQVSLYQIIVDSEKLAQEIYYQIEDEEISFYEAAYLYDVDAVRRQRCGYEGKVYRFSLPVNVATVIFRTSPKQLISPLQTEQGYHLFMVEEFIPAELTGERYQEILNNMFNQWLITELNKILN”: the protein production result is “failed”.

As to “MTPSAITLCFLIFAILMFALEKLPLAVTAMIVTVGLAVTGVLPAKEAFLGFVDTNVILFVAMFVIGGALFETGMANKIGGVVSRFAKSERQLMVVLMLITGLMSGILSNTGTSAILIPVILGIAMKSDFARSRLLMPMAFASTLGGNLSLIGSPNNLVVQGVLSQTGLKFGFFEYAKIGLPLLIVGILYFVFIGYRFLPQTLNTHVKKQDYHAFHHHHNIIPKWKQWLSLCVLIATLFAMVFEEVIGIKLYISACIGALILVIMRVITEKQAYQAIDSQVVFLFAGTLALADALKRTGAGADIAHSILSLLGDHPSTTALLLTILLLSCLLTNFMSNTATAALLAPIGLSIANSLNADPRAVLMAVVIGSSCAFATPIATPANTMILSVGQYKFTDYTKAGIPLIIISVLLSMLLLPIFFPLFL”, the protein production entry is “failed”. As to “MKKGAFITQIVIYGLILLASSLIANLVNKIWPAFPMPTPLIGMILLYLLLTFKVVKLEQVAGVSNFFVQFISLIFIPSGIALVTKLDVLKAEGVQIVIVIIVSTLMLLLFTAGIAWVLIQVKEWFIARRTNSNVELEED”, the protein production result was “failed”.

Regarding “MALTSGQVGNLLNAFDSHGGHFQTQMAFRLMWLTLTRANESVQARWDEFDLANGLWKIPKERMKARREHLLPLPRQAVSILTTMQPITGQSTYVFPNRDDRHKPMSDAAFRQALKKLGWATIYSPHGTRTTGSTRLNEMGLEHHHHHH”, the protein production result is reported as “failed”. On to “MSNHSSSIPELSDNGIRYYQTYNESLSLWPVRCKSFYISTRFGQTHVIASGPEDAPPLVLLHGALFSSTMWYPNIADWSSKYRTYAVDIIGDKNKSIPENVSGTRTDYANWLLDVFDNLGIEKSHMIGLSLGGLHTMNFLLRMPERVKSAAILSPAETFLPFHHDFYKYALGLTASNGVETFLNWMMNDQNVLHPIFVKQFKAGVMWQDGSRNPNPNADGFPYVFTDEELRSARVPILLLLGEHEVIYDPHSALHRASSFVPDIEAEVIKNAGHVLSMEQPTYVNERVMRFFNA”, for which the protein production entry was “not failed”. On to “MGGMRWLLLAKQPALGGAAALEGVMMKAPWAWALAVRLPDGRIHVERHEERALTERYPWTRLPLLRGVVALFDALSVSYRALARSAELAGGEEVPRGALWGTVA”, for which the protein production entry is reported as “failed”. For “MRAGIVGSGIMGRLLAFVLHNAGWQVSLFDRSNESMNCSTAAAGLLTPFSELDKSILLISTLGQESIKNCWPRIIEDLPESVYFQQSGSLVLCHPGDQAEWIHFSRRILSQLNPSNSVFQKLSHENLIALEPELTKFETAYYFPNEAHIDCQTLMLSLKNYLDSVCIPHITNTPVLSLKPGEINTKEQRYHFDVVFDCRGLGAQNVFSDLRGIRGELIWLHAPGVQLHRPIRLLHPRYSLYLVPRPGNFYLIGASEIEAEDFSPVSVRTALELLTAVYYLHRNFDEARIIKTVTHCRPTLVNHLPRIKFADGLIAVNGLYRHGYLIAPALAEEILRGVTSNFRHLNYPELWENYCDLEHHHHHH”, the protein production entry is recorded as “failed”. Consider “MEPCLHPTLVDETSLVLYLDLARETGYRYVDVPFHWLEAEAERHGDAAVEAMFQRRGLVLANLGLPLNLYDSEPVFLRELSLLPDRARLCARLGARSVTAFLWPSMDEEPVRYISQLARRIRQVAVELLPLGMRVGLEYVGPHHLRHRRYPFVQSLADLKTFWEAIGAPNVGALVDSYHWYTAGEHEDDLAQLPPEKVVYVHINDTRDAPEDAHDGKRLLPGDGRIPLVPFLRGLYLAGYRGPVAAEVLHETPLDGTGESRARLVRERLEKLIALAKGEN”, for which the protein production entry is given as “not failed”.

Take “MIGLNTAAIYILQTLGSLYLLIVLLRFILQLVRADFYNPLSQFIVRATKPLLNPLRRIIPGFGGIDLASLVLAILIQLVLMILILMLMGYGVGGFIMQLLIWSIIAVTSLFLKVFFFALIISVILSWVAPGSYNPGAQLVNQICEPLLMPFRKLLPNLGGLDLSPIFAFLALKLIDMLVINNLAAMTGMPQQLSIFL”: the protein production entry is reported as “failed”.

“MKHVGDDVVAIISQDGKVIREIPLTGHKGNEQFTIKGKGAQYNLMEVDGERIRIKEDNSPDQVGVKMGWKSKAGDTIVCLPHKVFVEILEHHHHHH”: the protein production result is “not failed”.

Regarding “MSEDELYELLKTKYGFDEFRPGQLAVIQKLLAGQDVLAVLPTGTGKSLIYQLVGTALPGLVVVVSPLISLMQDQVARLNYQGEKQVAALTSQLDYGARQYLLNHLGQLKFLFISPEMLGQDIIQTALMQVQLALLVIDEAHCISTWGPDFRPDYRRLGQIRQRLQAPTTLMLTATATQRVRQDILTQLTVPDAQQILYSVNRPNIYLAVEQVNDEASKRATLQHLVTSARGPVIVYFTSKRQTDLIAEWLRTTTTLRVAAYHAGLATDDRFKIQQQFMAGQLDVICATSAFGMGINKADIRLVIHYHLPTTLADYVQEIGRAGRDGQQAMAIMLYAPGDENLVRNLNELTAATPNEIQQDYSRYQAQQPPTDDRSKVLQSYWLQGTPPTTVATIFADRQVAKERELRTLMSYVQTTTCHRTVMLTYFGEPAVTHTDQCCQLAAEPLPLAALGLMATHDEPTATIMSWDQHLAQLFLPNS”, the protein production entry is “failed”.

(Values after a protein production outcome set (Wang et al. 2014).)
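Also: failed if final PepcDB status was selected cloned or expressed and not failed if soluble or beyond.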
